Reference: patent US8748182B2, “Mutant proteins and methods for producing them” (Heptares Therapeutics Limited, priority 2007, dated 2014)

B1: E219A: A2aR point mutant (protein, UniProt P29274 1-412, looked up, variant E219A)
Adenosine receptor A2a: MPIMGSSVYITVELAIAVLAILGNVLVCWAVWLNSNLQNVTNYFVVSLAAADIAVGVLAIPFAITISTGFCAACHGCLFIACFVLVLTQSSIFSLLAIAIDRYIAIRIPLRYNGLVTGTRAKGIIAICWVLSFAIGLTPMLGWNNCGQPKEGKNHSQGCGEGQVACLFEDVVPMNYMVYFNFFACVLVPLLLMLGVYLRIFLAARRQLKQMESQPLPGARARSTLQKEVHAAKSLAIIVGLFALCWLPLHIINCFTFFCPDCSHAPLWLMYLAIVLSHTNSVVNPFIYAYRIREFRQTFRKIIRSHVLRQQEPFKAAGTSARVLAAHGSDGEQVSLRLNGHPPGVWANGSAPHPERRPNGYALGLVSGGSAQESQGNTGLPDVELLSHELKGVCPEPPGLDDPLAQDGAGVS
B2: R220A: A2aR point mutant (protein, UniProt P29274 1-412, looked up, variant R220A)
Adenosine receptor A2a: MPIMGSSVYITVELAIAVLAILGNVLVCWAVWLNSNLQNVTNYFVVSLAAADIAVGVLAIPFAITISTGFCAACHGCLFIACFVLVLTQSSIFSLLAIAIDRYIAIRIPLRYNGLVTGTRAKGIIAICWVLSFAIGLTPMLGWNNCGQPKEGKNHSQGCGEGQVACLFEDVVPMNYMVYFNFFACVLVPLLLMLGVYLRIFLAARRQLKQMESQPLPGEAARSTLQKEVHAAKSLAIIVGLFALCWLPLHIINCFTFFCPDCSHAPLWLMYLAIVLSHTNSVVNPFIYAYRIREFRQTFRKIIRSHVLRQQEPFKAAGTSARVLAAHGSDGEQVSLRLNGHPPGVWANGSAPHPERRPNGYALGLVSGGSAQESQGNTGLPDVELLSHELKGVCPEPPGLDDPLAQDGAGVS
B3: V165A: NTR point mutant (protein, UniProt P20789 1-424, looked up, variant V165A)
Neurotensin receptor type 1: MHLNSSVPQGTPGEPDAQPFSGPQSEMEATFLALSLSNGSGNTSESDTAGPNSDLDVNTDIYSKVLVTAIYLALFVVGTVGNSVTAFTLARKKSLQSLQSTVHYHLGSLALSDLLILLLAMPVELYNFIWVHHPWAFGDAGCRGYYFLRDACTYATALNVASLSAERYLAICHPFKAKTLMSRSRTKKFISAIWLASALLAIPMLFTMGLQNRSGDGTHPGGLVCTPIVDTATVKVVIQVNTFMSFLFPMLVISILNTVIANKLTVMVHQAAEQGRVCTVGTHNGLEHSTFNMTIEPGRVQALRHGVLVLRAVVIAFVVCWLPYHVRRLMFCYISDEQWTTFLFDFYHYFYMLTNALFYVSSAINPILYNLVSANFRQVFLSTLACLCPGWRHRRKKRPTFSRKPNSMSSNHAFSTSATRETLY
B4: E166A: NTR point mutant (protein, UniProt P20789 1-424, looked up, variant E166A)
Neurotensin receptor type 1: MHLNSSVPQGTPGEPDAQPFSGPQSEMEATFLALSLSNGSGNTSESDTAGPNSDLDVNTDIYSKVLVTAIYLALFVVGTVGNSVTAFTLARKKSLQSLQSTVHYHLGSLALSDLLILLLAMPVELYNFIWVHHPWAFGDAGCRGYYFLRDACTYATALNVASLSVARYLAICHPFKAKTLMSRSRTKKFISAIWLASALLAIPMLFTMGLQNRSGDGTHPGGLVCTPIVDTATVKVVIQVNTFMSFLFPMLVISILNTVIANKLTVMVHQAAEQGRVCTVGTHNGLEHSTFNMTIEPGRVQALRHGVLVLRAVVIAFVVCWLPYHVRRLMFCYISDEQWTTFLFDFYHYFYMLTNALFYVSSAINPILYNLVSANFRQVFLSTLACLCPGWRHRRKKRPTFSRKPNSMSSNHAFSTSATRETLY
B5: G215A: NTR point mutant (protein, UniProt P20789 1-424, looked up, variant G215A)
Neurotensin receptor type 1: MHLNSSVPQGTPGEPDAQPFSGPQSEMEATFLALSLSNGSGNTSESDTAGPNSDLDVNTDIYSKVLVTAIYLALFVVGTVGNSVTAFTLARKKSLQSLQSTVHYHLGSLALSDLLILLLAMPVELYNFIWVHHPWAFGDAGCRGYYFLRDACTYATALNVASLSVERYLAICHPFKAKTLMSRSRTKKFISAIWLASALLAIPMLFTMGLQNRSADGTHPGGLVCTPIVDTATVKVVIQVNTFMSFLFPMLVISILNTVIANKLTVMVHQAAEQGRVCTVGTHNGLEHSTFNMTIEPGRVQALRHGVLVLRAVVIAFVVCWLPYHVRRLMFCYISDEQWTTFLFDFYHYFYMLTNALFYVSSAINPILYNLVSANFRQVFLSTLACLCPGWRHRRKKRPTFSRKPNSMSSNHAFSTSATRETLY
B6: V229A: NTR point mutant (protein, UniProt P20789 1-424, looked up, variant V229A)
Neurotensin receptor type 1: MHLNSSVPQGTPGEPDAQPFSGPQSEMEATFLALSLSNGSGNTSESDTAGPNSDLDVNTDIYSKVLVTAIYLALFVVGTVGNSVTAFTLARKKSLQSLQSTVHYHLGSLALSDLLILLLAMPVELYNFIWVHHPWAFGDAGCRGYYFLRDACTYATALNVASLSVERYLAICHPFKAKTLMSRSRTKKFISAIWLASALLAIPMLFTMGLQNRSGDGTHPGGLVCTPIADTATVKVVIQVNTFMSFLFPMLVISILNTVIANKLTVMVHQAAEQGRVCTVGTHNGLEHSTFNMTIEPGRVQALRHGVLVLRAVVIAFVVCWLPYHVRRLMFCYISDEQWTTFLFDFYHYFYMLTNALFYVSSAINPILYNLVSANFRQVFLSTLACLCPGWRHRRKKRPTFSRKPNSMSSNHAFSTSATRETLY
B7: Nag7m: NTR with F358A+A86L+I260A+F342A (protein)
chain: TSESDTAGPNSDLDVNTDIYSKVLVTAIYLALFVVGTVGNSVTLFTLARKKSLQSLQSTVHYHLGSLALSDLLILLLAMPVELYNFIWVHHPWAFGDAGCRGYYFLRDACTYATALNVASLSVERYLAICHPFKAKTLMSRSRTKKFISAIWLASALLAIPMLFTMGLQNRSGDGTHPGGLVCTPIVDTATVKVVIQVNTFMSFLFPMLVISILNTVAANKLTVMVHQAAEQGRVCTVGTHNGLEHSTFNMTIEPGRVQALRHGVLVLRAVVIAFVVCWLPYHVRRLMFCYISDEQWTTALFDFYHYFYMLTNALAYVSSAINPILYNLVSANFRQVFLSTLACLCPGWRHRRKKRPTFSRKPNSMSSNHAFSTSATRETLY
B8: Nag7n: NTR with F358A+H103A+I260A+F342A (protein)
chain: TSESDTAGPNSDLDVNTDIYSKVLVTAIYLALFVVGTVGNSVTAFTLARKKSLQSLQSTVAYHLGSLALSDLLILLLAMPVELYNFIWVHHPWAFGDAGCRGYYFLRDACTYATALNVASLSVERYLAICHPFKAKTLMSRSRTKKFISAIWLASALLAIPMLFTMGLQNRSGDGTHPGGLVCTPIVDTATVKVVIQVNTFMSFLFPMLVISILNTVAANKLTVMVHQAAEQGRVCTVGTHNGLEHSTFNMTIEPGRVQALRHGVLVLRAVVIAFVVCWLPYHVRRLMFCYISDEQWTTALFDFYHYFYMLTNALAYVSSAINPILYNLVSANFRQVFLSTLACLCPGWRHRRKKRPTFSRKPNSMSSNHAFSTSATRETLY
B9: Wildtype NTR: wild-type rat neurotensin receptor (protein)
chain: TSESDTAGPNSDLDVNTDIYSKVLVTAIYLALFVVGTVGNSVTAFTLARKKSLQSLQSTVHYHLGSLALSDLLILLLAMPVELYNFIWVHHPWAFGDAGCRGYYFLRDACTYATALNVASLSVERYLAICHPFKAKTLMSRSRTKKFISAIWLASALLAIPMLFTMGLQNRSGDGTHPGGLVCTPIVDTATVKVVIQVNTFMSFLFPMLVISILNTVIANKLTVMVHQAAEQGRVCTVGTHNGLEHSTFNMTIEPGRVQALRHGVLVLRAVVIAFVVCWLPYHVRRLMFCYISDEQWTTFLFDFYHYFYMLTNALFYVSSAINPILYNLVSANFRQVFLSTLACLCPGWRHRRKKRPTFSRKPNSMSSNHAFSTSATRETLY

Test: Thermostability of solubilised adenosine A2a receptor and mutants (radioligand binding after or during heating)
Format: physicochemical
Conditions: Ligand(−) format, binding after the heating step
Text: FIG. 12 Flow chart showing the two different assay formats of ligand (+) and ligand (−) used to determine receptor thermostablity.
• 1. 315 site-directed mutants made between residues 2-316 of A2aR. • 2. All of these mutants have been assayed for thermostability using an assay measuring agonist and antagonist binding after the heating step (Ligand(−) format as described in FIG. 12). • a. […] Mutations have been combined to generate mutants in a putative antagonist conformation. Wildtype A2aR has a Tm of 31° C. with ZM241385 bound. • a. Rant17 A54L+K122A+L235A Tm 48° C. (ZM241385 bound) • b. Rant19 A54L,T88A,V239A+A204L Tm 47° C. (ZM241385 bound) • c. Rant21 A54L,T88A,V239A+K122A Tm 49° C. (ZM241385 bound) • 4. Mutations from the agonist screen have been combined, but have led to only a very low level of improvement in Tm of +2° C.
In the case of B1, the “thermostability measured with 3H-NECA (agonist)” value is reported as “improved thermostability”. For B2, the “thermostability measured with 3H-NECA (agonist)” value was “improved thermostability”.

Test: Thermostability of neurotensin receptor (NTR) mutants (3H-neurotensin binding)
Format: physicochemical
Conditions: Ligand(+) format
For B3, the “thermostability, heated in the presence of 3H-neurotensin” value (“thermostability, heated in the presence” for short) was “improved thermostability”. With B4 the “thermostability, heated in the presence” value was “improved thermostability”. For B5, the “thermostability, heated in the presence” value was “improved thermostability”. In the case of B6, the “thermostability, heated in the presence” value is reported as “improved thermostability”.

Same assay, conditions: neurotensin bound
With B7 the “Tm (neurotensin bound)” value was 51 °C. With B8 the “Tm (neurotensin bound)” value was 51 °C. In the case of B9, the “Tm (neurotensin bound)” value is reported as 35 °C.
